In US8591913B2, “Methods of decreasing adipose tissue” (Toru Miyazaki, priority 2009, dated 2013):

Key:
[1] = test system: FAS domains; experiment: Co-immunoprecipitation of FLAG-tagged FAS regions with HA-tagged AIM in HEK293T cells; type: binding; details: HA-tagged mouse AIM
Excerpt: Further, it was attempted to map a binding region of FAS to AIM. FAS has the following distinct seven functional domains, i.e., ketoacyl synthase (KS), malonyl/acetyl transferase (MAT), dehydrase (DH), enoylreductase (ER), ketoreductase (KR), acyl carrier protein (ACP), and thioesterase (TE), as illustrated in FIG. 34A. There is a central core (CC) between the DH domain and the ER domain. It is believed that the central core has no known catalytic function and plays a structural role in stabilization of the dimer. FIG. 34A illustrates FAS dimerized through head-to-tail interaction and major functions of its respective regions.
Thus, an association of each region in FAS tagged with FLAG with AIM tagged with HA was examined by a co-precipitation study. That is, each domain from FAS tagged with FLAG at the N terminus was expressed in HEK293T cells in which mouse AIM tagged with HA was stably expressed. Then, the association of each region with AIM was examined by a co-immunoprecipitation study using an anti-FLAG antibody and an anti-HA antibody. However, AIM was not bound to an N terminal region including the KS and MAT domains (see FIG. 34A) involved in initial acyl chain assembly (i.e., condensation of acetyl group and malonyl group to 3-ketobutyryl-ACP associated with release of carbon dioxide). Therefore, it was thought that AIM affected elongation of a fatty acid chain (which involves ER and DH) and the release of synthesized palmitate (which depends on TE). Over-expression of ER or KR led to death of many cells. This caused the reduction of the signals in WB using the cell lysates of them [lower panel in FIG. 34B, lanes: ER and KR).

[2] = test system: 3T3-L1 cells; experiment: Expression of genes associated with adipocyte differentiation, quantitative RT-PCR; type: cell-based; details: mouse AIM
Method: The cells cultured in the above-mentioned five schedules (a) to (e) in Examples 2 and 3 above were collected on the 10th day (day 12) after the initiation of the stimuli for differentiation induction, and the expression of genes associated with adipose differentiation was analyzed using quantitative RT-PCR (QPCR).

[3] = target: T1, FAS (Mus musculus, UniProt P19096); experiment: FAS enzyme activity in lysates of loaded 3T3-L1 cells (malonyl-CoA consumption); type: cell-based; details: mouse AIM 5 μg/mL
T1 construct: cell lysates were prepared, and the enzyme activity of FAS was measured; endogenous in cells; host or cells: 3T3-L1 cells (differentiating or differentiated)
Method: Whether AIM affected an enzyme activity of FAS or not was examined.
In addition, as a schedule (f) similar to the above-mentioned schedule (e), AIM was loaded for 4 days (day 8 to day 12) after the 3T3-L1 cells differentiated, subsequently the cells were collected on the 10th day (day 12) after the initiation of the differentiation induction, cell lysates were prepared, and the enzyme activity of FAS was measured. The enzyme activity of FAS was measured based on a consumption amount of malonyl-CoA.
In addition, using a FAS inhibitor (C75) in place of AIM, the FAS inhibitor at a concentration of 25 μM was loaded according to the schedules (d) and (f), and as was the case with the above-mentioned AIM, the cells were collected on the 2nd day (day 4: schedule (d)) and 10th day (day 12: schedule (f)) after the initiation of the differentiation induction, and the enzyme activity of FAS was measured.
Further, for comparison, the cells cultured without loading AIM in the above-mentioned schedule (a) were also collected at times of the 2nd day (day 4) and 10th day (day 12) after the initiation of the differentiation induction, and the enzyme activity of FAS was measured.
FIG. 11B and FIG. 11C illustrate the results of measuring the FAS enzyme activity (Fatty acid synthase activity) (nmol NADPH/min/mg protein). FIG. 11B illustrates the results obtained on the 2nd day (day 4) after the initiation of the differentiation induction in the case of loading no AIM according to the schedule (a) (None), the case of loading AIM according to the schedule (d) (AIM (5 μg/mL)), and the case of loading the FAS inhibitor according to the schedule (d) (C75 (25 μM)). FIG. 11C illustrates the results obtained on the 10th day (day 12) after the initiation of the differentiation induction in the case of loading no AIM according to the schedule (a) (None), the case of loading AIM according to the schedule (f) (AIM (5 μg/mL)), and the case of loading the FAS inhibitor according to the schedule (f) (C75 (25 μM)).

[4] = target: T2, CD36 (Mus musculus, UniProt Q08857); experiment: Internalization of AIM into 3T3-L1 adipocytes with or without CD36 neutralizing antibody; type: cell-based
T2 construct: endogenous in cells; host or cells: differentiated 3T3-L1 adipocytes
Method: Further, in order to confirm that AIM is internalized via CD36, a neutralizing antibody which inhibited the binding of a ligand to CD36 was simultaneously loaded when the 3T3-L1 adipocyte differentiated by the above-mentioned differentiation induction was loaded with AIM. Subsequently, the cultured 3T3-L1 adipocytes were collected, and stained using an anti-AIM antibody. The 3T3-L1 adipocytes loaded with AIM alone without loading the neutralizing antibody against CD36 were cultured and stained in the same manner as described above.

[5] = schedule (d): day 2 to day 4, cells collected day 12

T1 sequence (P19096 whole entry): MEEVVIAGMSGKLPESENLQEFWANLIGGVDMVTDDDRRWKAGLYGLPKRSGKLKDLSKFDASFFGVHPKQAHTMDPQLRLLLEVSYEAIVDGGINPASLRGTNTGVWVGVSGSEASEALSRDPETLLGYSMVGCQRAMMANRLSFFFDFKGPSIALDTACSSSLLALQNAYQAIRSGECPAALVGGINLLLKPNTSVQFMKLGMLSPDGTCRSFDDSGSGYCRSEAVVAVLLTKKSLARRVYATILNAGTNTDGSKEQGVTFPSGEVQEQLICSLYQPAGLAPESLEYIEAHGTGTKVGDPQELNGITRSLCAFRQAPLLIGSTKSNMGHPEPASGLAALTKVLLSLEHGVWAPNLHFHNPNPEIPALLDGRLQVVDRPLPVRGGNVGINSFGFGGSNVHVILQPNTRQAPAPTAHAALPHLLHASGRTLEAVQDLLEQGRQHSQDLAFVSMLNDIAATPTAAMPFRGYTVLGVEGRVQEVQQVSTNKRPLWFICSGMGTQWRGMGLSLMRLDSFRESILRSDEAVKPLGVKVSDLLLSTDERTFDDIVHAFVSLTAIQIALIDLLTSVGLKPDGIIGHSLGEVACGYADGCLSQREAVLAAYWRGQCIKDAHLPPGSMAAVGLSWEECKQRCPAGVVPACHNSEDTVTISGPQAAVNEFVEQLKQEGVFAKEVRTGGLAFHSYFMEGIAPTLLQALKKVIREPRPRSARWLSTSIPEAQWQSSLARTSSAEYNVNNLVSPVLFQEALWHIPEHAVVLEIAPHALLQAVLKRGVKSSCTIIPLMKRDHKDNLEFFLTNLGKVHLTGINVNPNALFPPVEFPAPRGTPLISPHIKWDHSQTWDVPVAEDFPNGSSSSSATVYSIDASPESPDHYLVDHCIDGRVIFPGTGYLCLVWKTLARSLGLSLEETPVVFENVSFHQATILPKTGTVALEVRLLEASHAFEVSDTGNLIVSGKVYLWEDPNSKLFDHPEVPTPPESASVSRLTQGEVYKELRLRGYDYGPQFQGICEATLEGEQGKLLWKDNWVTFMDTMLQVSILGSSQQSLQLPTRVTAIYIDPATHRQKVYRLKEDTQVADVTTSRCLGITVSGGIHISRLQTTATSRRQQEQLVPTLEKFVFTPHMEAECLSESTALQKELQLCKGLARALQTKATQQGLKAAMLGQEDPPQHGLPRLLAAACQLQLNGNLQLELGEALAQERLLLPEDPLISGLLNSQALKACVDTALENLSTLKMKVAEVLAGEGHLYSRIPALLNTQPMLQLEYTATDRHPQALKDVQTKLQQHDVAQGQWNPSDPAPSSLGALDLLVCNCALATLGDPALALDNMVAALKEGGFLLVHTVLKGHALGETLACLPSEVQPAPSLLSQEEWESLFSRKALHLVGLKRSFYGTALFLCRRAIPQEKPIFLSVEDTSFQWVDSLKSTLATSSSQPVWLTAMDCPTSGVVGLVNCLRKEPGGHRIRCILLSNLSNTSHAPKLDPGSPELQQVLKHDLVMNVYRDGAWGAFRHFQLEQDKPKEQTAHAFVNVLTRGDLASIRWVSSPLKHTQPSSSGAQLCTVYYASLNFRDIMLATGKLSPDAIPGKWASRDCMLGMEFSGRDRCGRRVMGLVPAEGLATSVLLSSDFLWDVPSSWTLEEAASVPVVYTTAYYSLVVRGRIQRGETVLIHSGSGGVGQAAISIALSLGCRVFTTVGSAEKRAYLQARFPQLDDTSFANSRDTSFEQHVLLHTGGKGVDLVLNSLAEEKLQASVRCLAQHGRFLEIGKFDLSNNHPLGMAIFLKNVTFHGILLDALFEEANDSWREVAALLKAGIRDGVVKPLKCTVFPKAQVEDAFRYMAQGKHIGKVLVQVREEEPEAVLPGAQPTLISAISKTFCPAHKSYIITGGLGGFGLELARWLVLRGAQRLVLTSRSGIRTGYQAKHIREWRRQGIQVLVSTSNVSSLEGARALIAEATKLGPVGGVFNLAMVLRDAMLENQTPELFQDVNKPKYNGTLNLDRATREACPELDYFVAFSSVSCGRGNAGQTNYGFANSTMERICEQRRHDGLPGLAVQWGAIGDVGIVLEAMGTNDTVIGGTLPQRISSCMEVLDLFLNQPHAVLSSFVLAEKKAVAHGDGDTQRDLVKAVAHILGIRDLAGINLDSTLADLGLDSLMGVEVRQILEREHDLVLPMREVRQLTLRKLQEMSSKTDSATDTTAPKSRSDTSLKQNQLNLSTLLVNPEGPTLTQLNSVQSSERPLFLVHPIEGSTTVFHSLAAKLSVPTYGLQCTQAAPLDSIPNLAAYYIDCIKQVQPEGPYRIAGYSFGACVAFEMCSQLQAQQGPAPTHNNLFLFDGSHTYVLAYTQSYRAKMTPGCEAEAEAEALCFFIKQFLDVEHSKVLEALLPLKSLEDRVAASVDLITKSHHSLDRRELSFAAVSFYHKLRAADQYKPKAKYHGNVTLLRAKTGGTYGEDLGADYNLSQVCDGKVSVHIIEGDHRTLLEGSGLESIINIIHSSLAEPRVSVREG
T2 sequence (Q08857 whole entry): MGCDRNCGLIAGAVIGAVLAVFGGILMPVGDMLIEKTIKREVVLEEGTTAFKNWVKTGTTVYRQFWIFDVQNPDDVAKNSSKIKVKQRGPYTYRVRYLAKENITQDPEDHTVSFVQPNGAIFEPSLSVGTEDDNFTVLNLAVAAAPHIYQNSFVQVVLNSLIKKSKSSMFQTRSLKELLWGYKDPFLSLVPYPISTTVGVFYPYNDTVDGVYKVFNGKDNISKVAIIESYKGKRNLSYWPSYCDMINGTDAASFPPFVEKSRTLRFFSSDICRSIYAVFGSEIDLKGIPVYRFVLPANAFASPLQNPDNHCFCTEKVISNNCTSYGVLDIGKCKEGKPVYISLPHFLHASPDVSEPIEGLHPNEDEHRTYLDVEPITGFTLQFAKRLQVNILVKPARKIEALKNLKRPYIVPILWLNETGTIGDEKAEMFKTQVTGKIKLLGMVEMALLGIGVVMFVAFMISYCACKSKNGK

B1: AIM: apoptosis inhibitor of macrophage, secretory protein with three SRCR domains; recombinant mouse and human AIM in Example 2, mouse AIM in Examples 3-16 (protein)
chain: ESPTKVQLVGGAHRCEGRVEVEHNGQWGTVCDDGWDRRDVAVVCRELNCGAVIQTPRGASYQPPASEQRVLIQGVDCNGTEDTLAQCELNYYVFDCSHEEDAGAQCENPDSDLLFIPEDVRLVDGPGHCQGRVEVLHQSQWSTVCKAGWNLQVSKVVCRQLGCGRALLTYGSCNKNTQGKGPIWMGKMSCSGQEANLRSCLLSRLENNCTHGEDTWMECEDPFELKLVGGDTPCSGRLEVLHKGSWGSVCDDNWGEKEDQVVCKQLGCGKSLHPSPKTRKIYGPGAGRIWLDDVNCSGKEQSLEFCRHRLWGYHDCTHKEDVEVICTDFDV
binding to the CC (central core) domain of FAS ([1]; FLAG-tagged domain): specifically bound
binding to the DH domain of FAS ([1]; FLAG-tagged domain): specifically bound
binding to the ER domain of FAS ([1]; FLAG-tagged domain): specifically bound
binding to the TE domain of FAS ([1]; FLAG-tagged domain): specifically bound
binding to the N terminal region of FAS including the KS and MAT domains ([1]; FLAG-tagged region): not bound
expression of the C/EBPα gene ([2]; schedule (b): day 2 to day 12): almost completely inhibited
expression of the CD36 gene ([2]; schedule (b): day 2 to day 12): almost completely inhibited
expression of the FAS gene ([2]; schedule (b): day 2 to day 12): slightly increased
expression of the Glut4 gene ([2]; schedule (b): day 2 to day 12): almost completely inhibited
expression of the PPARγ gene ([2]; schedule (b): day 2 to day 12): almost completely inhibited
gene expression patterns compared with no AIM ([2]; schedule (c): day -2 to day 2): not changed
expression of the FAS gene ([2]; schedule (d): day 2 to day 4): slightly increased
expression of the C/EBPα gene [2, 5]: almost completely inhibited
expression of the CD36 gene [2, 5]: almost completely inhibited
expression of the Glut4 gene [2, 5]: almost completely inhibited
expression of the PPARγ gene [2, 5]: almost completely inhibited
gene expression patterns compared with no AIM ([2]; schedule (e): day 6 to day 12): not changed
enzyme activity of FAS ([3]; schedule (d): day 2 to day 4, cells collected day 4, compared with no AIM): remarkably reduced
enzyme activity of FAS ([3]; schedule (f): day 8 to day 12, cells collected day 12, compared with no AIM): remarkably reduced
internalization of AIM into the cells ([4]; neutralizing antibody against CD36 loaded simultaneously): not observed
internalization of AIM into the cells ([4]; neutralizing antibody against CD36 not loaded): had been internalized into the cells
